Test results as given in paper PMC10325834, “Characteristics of Mycobacterium tuberculosis PtpA interaction and activity on the alpha subunit of human mitochondrial trifunctional protein, a key enzyme of lipid metabolism” (Frontiers in Cellular and Infection Microbiology, 2023).

B1: recombinant alpha subunit of human mitochondrial trifunctional protein, wild type (enzyme)
chain: not shown
notes: also called hTFPα; hTFPα-wt; source: E. coli BL21 (DE3), purified (Ni-NTA, SEC on Superdex 200)
B2: recombinant alpha subunit of human mitochondrial trifunctional protein, Y271F mutant (enzyme)
chain: not shown
notes: also called hTFPα-Y271F; source: E. coli BL21 (DE3), purified (Ni-NTA, TEV cleavage, SEC)

Target: the molecule itself
Assay: SEC; Superdex 200 16/60 preparative grade; 50 mM Tris-HCl pH 8.0, 100 mM NaCl, 5% glycerol, 0.1% Tween 20; apparent molecular weight from a calibration curve

| Protein | stoichiometry N |
| --- | --- |
| B1 | 2 |
| B2 | 2 |
